Measured values taken from patent US12084523 (TECHNION RESEARCH AND DEVELOPMENT FOUNDATION, dated 2024).
Starred links: 1 amine or outer side, 2 acyl side, 3 side chain; linkers in the order of their positions; H or OH if unused. Positions of bridges follow the written chain, without caps; N, C: chain ends. Non-standard residues stand in square brackets, D forms with d. No end group written: not given here. mClBz = N-terminal chlorobenzyl thioether anchor (M*) that cyclises onto the Cys, the meta form of the mClBz/pClBz pair, O=C(c1cccc(C[*:3])c1)[*:2]; code ∗ = not defined here

How the values were obtained:
[1] = target: T1, biotin-^K48Ub4 (chemically synthesized K48-linked tetra-ubiquitin, biotin on the distal Ub) (UniProt P0CG48 1-76, isopeptide bonds from the C-terminus of each Ub to Lys48 of the next Ub; biotin at the N-terminus of the distal Ub); experiment: SPR (Biacore T100), biotin-Ub chain on the chip, peptide in flow; error 7
T1 construct: mature; also called Ub tetramer

[2] = target: T2, biotin-^K48Ub2 (chemically synthesized K48-linked di-ubiquitin, biotin on the distal Ub) (UniProt P0CG48 1-76, isopeptide bond from the C-terminus of the distal Ub to Lys48 of the proximal Ub; biotin at the N-terminus of the distal Ub); experiment: SPR (Biacore T100), biotin-Ub chain on the chip, peptide in flow; error 28
T2 construct: mature; also called Lys48-linked ubiquitin dimer

[3] = target: T2, biotin-^K48Ub2 (chemically synthesized …); experiment: SPR, K48-Ub2
[4] = target: T2, biotin-^K48Ub2 (chemically synthesized …); experiment: SPR, K48-Ub2; remark: listed apart in the source
[5] = target: T1, biotin-^K48Ub4 (chemically synthesized …); experiment: SPR (Biacore T100), biotin-Ub chain on the chip, peptide in flow; error 0.002
[6] = target: T1, biotin-^K48Ub4 (chemically synthesized …); experiment: SPR (Biacore T100), biotin-Ub chain on the chip, peptide in flow; error 7.30E+05
[7] = target: T1, biotin-^K48Ub4 (chemically synthesized …); experiment: SPR (Biacore T100), biotin-Ub chain on the chip, peptide in flow; error 4
[8] = target: T2, biotin-^K48Ub2 (chemically synthesized …); experiment: SPR (Biacore T100), biotin-Ub chain on the chip, peptide in flow; error 8
[9] = target: T2, biotin-^K48Ub2 (chemically synthesized …); experiment: SPR, K48-Ub2; mClBz anchor; wildtype J08, no mutations

Row | Binder | Kd [3] [nM] | Kd [4] [nM] | Kd [7] [nM] | also measured
1 | {code ∗}-[dW]LYLDDSGDWWICG (thioether N-13 (inferred); reading uncertain; also: printed as *WLYLDDSGDWWICG, also called U4ix; Ub4xi) [Ub4ix cyclic peptide] | – | – | – | koff [5]: 0.021 s⁻¹; kon [6]: 3.52e+06 M⁻¹ s⁻¹
2 | {CH2CO}-[dW]GWFDNLYWYVTHCG (thioether N-14, also called U2i) [Ub2i cyclic peptide] | – | – | 14 | –
3 | mClBz-GWFDDEYLFVAYCG (bridge N-13; not fully specified (bridges)) [J08_mClBz_L6E] | 5 | 5 | – | –

Now from value to binder, other results behind:

Row | Kd [3] [nM] | Kd [4] [nM] | Kd [7] [nM] | Binder | also measured
4 | 90 | 90 | – | WGWFDDLYLFVAYCG (position 1 is ClAc-D-Trp (M* of Table 2); macrocycle closed between the N-terminal chloroacetyl group and the Cys, also called U4i) [Ub4i cyclic peptide] | Kd [1]: 26 nM; Kd [2]: 91 nM
5 | – | 33 | 14 | WWYDREYYYLGYGCG (position 1 is ClAc-D-Trp (M* of Table 2); macrocycle closed between the N-terminal chloroacetyl group and the Cys, also called U2ii) [Ub2ii cyclic peptide] | Kd [8]: 33 nM
6 | – | 10 | – | mClBz-GWFDDLYLFVAYCG (bridge N-13; not fully specified (bridges), also called J08 (M* = mClBz)) [J08_mClBz] | Kd [9]: 10 nM
